Measurements: paper PMC3636572

B1: RNAR9D-14T (XNA)
RNA: GGCGGUCGAUCACACAGUUCAAACGUAAUAAGCCAAUGUACGAGGCAGACGACUCGCC
modifications: 2'-fluoro on all C and U; purines 2'-OH
B2: biotin-RNAR9D-14T (XNA)
RNA: B1 RNA
modifications: 2'-fluoro on all C and U; purines 2'-OH

What was measured:
beta-thrombin = beta-thrombin (UniProt P00734;P00734;P00734 328-363;364-425;437-622); assay: filter binding
prothrombin [1] = biological target: T1, prothrombin (Homo sapiens, UniProt P00734 44-622); assay: filter binding
porcine thrombin = porcine thrombin (pig, UniProt Q19AZ8;Q19AZ8 316-364;365-623); assay: filter binding
prothrombin [2] = biological target: T1, prothrombin; assay: SPR

Row | Binder | Kd (beta-thrombin) [nM] | Kd (prothrombin [1]) [nM] | Kd (porcine thrombin) [nM] | Kd (prothrombin [2]) [nM]
1 | B1 | 20 | 10 | 5 | 
2 | B2 |  |  |  | 1.4
